This test concerns the target human MDM2 (Homo sapiens, UniProt Q00987). Put plainly: MDM2 AlphaLISA competition assay. The settings on record: up to 50 µM. Format: binding.

Sequence of human MDM2 (Q00987 whole entry): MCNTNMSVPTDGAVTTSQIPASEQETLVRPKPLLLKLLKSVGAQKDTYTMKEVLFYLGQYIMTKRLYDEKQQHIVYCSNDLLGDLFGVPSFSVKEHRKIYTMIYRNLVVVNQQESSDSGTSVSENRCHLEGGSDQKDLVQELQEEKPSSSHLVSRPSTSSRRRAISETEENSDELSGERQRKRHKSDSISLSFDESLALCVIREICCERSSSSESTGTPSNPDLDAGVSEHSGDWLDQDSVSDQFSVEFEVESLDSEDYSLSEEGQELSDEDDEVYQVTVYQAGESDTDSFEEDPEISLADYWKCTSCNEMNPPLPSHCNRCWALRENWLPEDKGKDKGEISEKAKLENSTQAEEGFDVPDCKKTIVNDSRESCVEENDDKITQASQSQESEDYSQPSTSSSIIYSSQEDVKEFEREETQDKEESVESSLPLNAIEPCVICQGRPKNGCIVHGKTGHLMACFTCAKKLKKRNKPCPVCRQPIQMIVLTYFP

As to F-S-D-L-W (FSDLW) [p53 motif], the “activity in the AlphaLISA assay” value was “no activity”.

These data come from publication PMC12095755 (Nature Communications, 2025).
